{
  "source": "patent US20240108702A1",
  "about": "“Use Of Naturally Occurring Cyclic Peptides For Treatment Of SARS-COV-2 Infection” (The University of Southern California, priority 2021, published 2024)",
  "molecules": {"B1": {"name": "Peptide 1 (SEQ ID NO. 1) (peptide)", "peptide": "cyclo(GFCRCLCRRGVCRCICTR)", "modifications": "disulfide (positions not given here); also: three disulfide bonds, pairing not given here"}},
  "key": {"SARS-CoV-2": {"tested_on": "SARS-CoV-2", "test": "Antiviral assay, SARS-CoV-2 replication in Calu3 2B4 cells (RT-qPCR)", "type": "cell-based", "settings": "24 h"}, "TMPRSS2 [1]": {"target": "T1, TMPRSS2 (Homo sapiens, UniProt O15393)", "T1 sequence (O15393 whole entry)": "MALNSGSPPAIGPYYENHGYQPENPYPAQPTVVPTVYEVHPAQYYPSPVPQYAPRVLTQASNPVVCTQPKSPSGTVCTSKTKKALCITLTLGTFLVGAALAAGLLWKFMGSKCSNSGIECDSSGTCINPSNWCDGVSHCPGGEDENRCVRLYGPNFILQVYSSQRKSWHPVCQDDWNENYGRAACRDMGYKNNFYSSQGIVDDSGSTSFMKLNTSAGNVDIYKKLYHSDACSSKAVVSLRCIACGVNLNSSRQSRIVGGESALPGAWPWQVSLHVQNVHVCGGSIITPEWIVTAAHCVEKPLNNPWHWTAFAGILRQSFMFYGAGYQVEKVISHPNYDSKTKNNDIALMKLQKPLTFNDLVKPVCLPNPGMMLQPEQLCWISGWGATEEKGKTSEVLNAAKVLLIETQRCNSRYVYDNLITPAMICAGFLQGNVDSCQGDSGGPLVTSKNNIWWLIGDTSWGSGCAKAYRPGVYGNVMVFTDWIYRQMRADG", "test": "Cellular TMPRSS2 inhibition assay in Calu3 cells", "type": "cell-based", "set-up": "endogenous in cells; host or cells: Calu3 (Calu-3) cells", "settings": "Calu3 cells", "description": "(§1) TMPRSS2 inhibition assays. Peptides (0-50 μg/ml) were tested for their inhibitory activities against TMPRSS2 in cellular assays using Vero E6 cells, Caco-2 cells, or Calu-3 cells using standard conditions. TMPRSS2 activity was assayed in real time for 120 min by monitoring the cleavage of the TMPRSS2 substrate, Boc-Leu-Gly-Arg-AMC. Following the 2 h enzyme assay, cells were evaluated for viability using the CellTiter-Glo cellular toxicity assay."}, "TMPRSS2 [2]": {"target": "T1, TMPRSS2", "test": "Cellular TMPRSS2 inhibition assay in Caco-2 cells", "type": "cell-based", "set-up": "using Caco-2 and Calu3 cells, both of which express surface TMPRSS2; endogenous in cells; host or cells: Caco-2 cells", "description": "Caco-2 cells (1×10^5 per well) were incubated in 96 well plates with 0 to 50 μg/ml of the indicated peptide in the presence of a TMPRSS2 substrate (Boc-Leu-Gly-Arg-AMC) in 50 mM Tris-HCl, pH 7.4. Substrate conversion was monitored in a fluorescence plate reader for 2 hours and inhibition of enzyme activity was expressed relative to a solvent control.\nas §1"}, "[3]": {"test": "Biodistribution of 14C-radiolabeled Peptide 1 in female rats", "type": "in vivo, SD rats", "description": "Biodistribution [^14C]-radiolabeled Peptide 1 (SEQ ID NO. 1) in female rats: Five SD rats (195 and 200 g b.w.) with jugular vein catheters (JVC) were each injected with 200 μL of 5 mg/mL Peptide 1 (SEQ ID NO. 1) in saline containing ˜4 million CPM of [^14C]-Peptide 1. The ^14C-Peptide 1 (SEQ ID NO. 1) was created by substituting the natural glycine residue on position 1 of the cyclic peptide with a ^14C labeled glycine. The JVC line was cleaned with 70% isopropyl alcohol, and the line plug was removed. A new 25 G blunt needle with a 1 mL syringe containing injectable solutions was used for each injection. The JVC line was first cleared with 100 μL saline, followed by the Peptide 1 (SEQ ID NO. 1) solution, then cleared with an additional 100 μL of saline. Tissues and organs were harvested into separated vials and weighed. Small organs such as lymph nodes, kidneys, and heart/lungs were processed whole. Large organs (e.g., liver, muscles, subcutaneous fat pads) were sampled from representative areas or those of interest (e.g., subcutis at the injection site). Organs were then dissolved in 2 mL Solvable™ (Perkin Elmer 6NE9100) for up to 1 g of tissue. For a large section of skin and other organs, 4 or 6 mL were added. Vials were incubated in a 60° C. water bath for 18-22 hours, then removed and allowed to cool to room temperature. […]"}, "TMPRSS2 [4]": {"target": "TMPRSS2 (UniProt O15393 1-492, limits assumed)", "sequence (O15393 whole entry)": "as above", "test": "cell-based or functional assay"}},
  "note": "Where “and” joins values, the source holds several entries; their conditions need not be identical. Equal values may be shown once. Entries after “also recorded” stand apart in the source; their conditions may differ. Where no end group is shown, it is not given here. [ ]: non-standard residue; d: D form. 14C‑Gly = 14C labelled glycine",
  "data": [
    {"molecule": "Peptide 2: naturally occurring cyclic peptide (theta defensin), SEQ ID NO. 2, FIG. 1A (GVCRCLCRRGVCRCLCRR; cyclic; listed as Macaca mulatta)", "values": [
      {"measurement": "SARS-CoV-2 viral replication (N gene expression relative to ACTB)", "setting": "SARS-CoV-2", "result": "highly effective in blocking viral replication"}
    ]},
    {"molecule": "Peptide 3: naturally occurring cyclic peptide (theta defensin), SEQ ID NO. 3, FIG. 1A (GFCRCICTRGFCRCICTR; cyclic; listed as Macaca mulatta)", "values": [
      {"measurement": "inhibition of TMPRSS2", "setting": "TMPRSS2 [1]", "result": "similarly inhibited TMPRSS2"},
      {"measurement": "inhibition of TMPRSS2", "setting": "TMPRSS2 [2]; Caco-2 cells, 0 to 50 μg/ml, FIG. 10", "result": "higher than Peptide 1"}
    ]},
    {"molecule": "Peptide 5: naturally occurring cyclic peptide (theta defensin), SEQ ID NO. 5, FIG. 1B (GICRCLCRRGVCRCICVL; not fully specified (bridges); also: cyclic; listed as Macaca mulatta)", "values": [
      {"measurement": "TMPRSS2 inhibitory activity", "setting": "TMPRSS2 [2]; highest concentration tested (50 μg/mL), cell line not stated", "result": "no TMPRSS2 inhibitory activity"},
      {"measurement": "SARS-CoV-2 viral replication (N gene expression relative to ACTB)", "setting": "SARS-CoV-2", "result": "no apparent antiviral effect; also recorded: inactive"}
    ]},
    {"molecule": "^14C-Peptide 1: created by substituting the natural glycine residue on position 1 of the cyclic peptide with a 14C labeled glycine ([14C‑Gly]FCRCLCRRGVCRCICTR; not fully specified (bridges); also: cyclic; listed as Macaca mulatta)", "values": [
      {"measurement": "tissue distribution (density of 14C)", "setting": "[3]; 1 h after i.v. administration", "result": "highest density measured in the liver, followed by the kidney"},
      {"measurement": "14C counts recovered in urine", "setting": "[3]; single i.v. dose equivalent to 5 mg/kg, 24 h", "result": "7% and 8.5%"}
    ]},
    {"molecule": "B1", "values": [
      {"measurement": "IC50 of enzyme inhibition (cleavage of Boc-Leu-Gly-Arg-AMC by cells)", "setting": "TMPRSS2 [4]", "result": "6.5 to 8", "unit": "µg/mL"}
    ]}
  ]
}
